These results are taken from paper PMC3970081 (Developmental cell, 2014).

Experiment [1] addresses T1, His-AR1 (AnkG aa 2–236, His-tagged) (UniProt O70511 2-236).
T1 sequence (looked up): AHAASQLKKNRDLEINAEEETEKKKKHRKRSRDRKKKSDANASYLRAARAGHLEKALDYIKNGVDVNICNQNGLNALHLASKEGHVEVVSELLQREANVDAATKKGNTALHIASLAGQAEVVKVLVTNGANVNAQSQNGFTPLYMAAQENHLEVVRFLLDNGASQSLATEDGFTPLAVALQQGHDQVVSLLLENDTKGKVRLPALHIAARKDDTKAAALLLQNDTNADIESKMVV
In words: SPR. (In general: In SPR one partner is held on a chip, and binding of the other changes the refractive index at the surface.)

For experiment [2], the target named is T2, His-MB (AnkG MB domain, aa 2–791, His-tagged) (UniProt O70511 2-791).
T2 sequence (looked up): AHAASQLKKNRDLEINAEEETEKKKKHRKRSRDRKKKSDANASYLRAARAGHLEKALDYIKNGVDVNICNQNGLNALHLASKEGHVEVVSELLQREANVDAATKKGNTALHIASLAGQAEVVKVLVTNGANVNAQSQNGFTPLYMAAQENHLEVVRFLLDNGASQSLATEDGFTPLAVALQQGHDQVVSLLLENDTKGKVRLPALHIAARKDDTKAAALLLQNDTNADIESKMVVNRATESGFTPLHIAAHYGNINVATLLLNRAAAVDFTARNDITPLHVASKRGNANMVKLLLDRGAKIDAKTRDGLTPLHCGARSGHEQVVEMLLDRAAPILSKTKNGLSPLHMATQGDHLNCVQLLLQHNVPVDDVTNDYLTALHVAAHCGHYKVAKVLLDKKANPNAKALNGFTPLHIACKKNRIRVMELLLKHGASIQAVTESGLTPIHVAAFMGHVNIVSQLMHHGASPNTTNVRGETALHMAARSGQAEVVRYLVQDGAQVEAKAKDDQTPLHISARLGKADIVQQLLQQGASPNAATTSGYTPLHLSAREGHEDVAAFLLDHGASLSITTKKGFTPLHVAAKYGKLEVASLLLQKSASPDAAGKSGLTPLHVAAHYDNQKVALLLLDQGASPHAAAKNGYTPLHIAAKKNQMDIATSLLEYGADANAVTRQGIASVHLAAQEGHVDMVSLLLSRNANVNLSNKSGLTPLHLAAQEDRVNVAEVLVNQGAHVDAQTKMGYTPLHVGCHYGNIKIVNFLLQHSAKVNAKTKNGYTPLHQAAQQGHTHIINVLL
In words: SPR.

B1: GST-Tail (GST-tagged KIF5B tail, aa 758–963) (domain or fragment)
chain: not shown
For the molecule B1, in experiment [1], the Kd is 48 nM, the dissociation rate constant (koff) amounted to 0.0014 s⁻¹ and the on-rate (kon) is 32000 M⁻¹ s⁻¹. In experiment [2], the Kd was determined as 2.4 nM, the koff came to 0.00059 s⁻¹ and the kon was 290000 M⁻¹ s⁻¹.

The term Kd denotes the concentration at which binding is half-saturated. A higher Kd goes with weaker binding. Broadly, the koff is the rate constant with which the complex falls apart. Lower therefore signals slow dissociation. The term kon denotes the rate constant with which the complex forms.
